Like-named read-outs stand apart in the source and are kept apart here.
Assays:
[1] = biological target: light-harvesting complex II (LHCII) trimer (spinach)
[2] = biological target: light-harvesting complex II (LHCII) trimer (spinach); remark: listed apart in the source

## light-harvesting complex II (LHCII) trimer
[1]
  pairwise LHCII-LHCII interaction energy J: -5.4 kBT
[2]
  pairwise LHCII-LHCII interaction energy J: -7.2 kBT

Reference: PMC10745693
